Experimental data as given in PMC12786276.

Biological target: CD47 (endogenously expressed in MDA-MB-231 cells) (human (endogenous in MDA-MB-231)) (UniProt Q08722)
UniProt Q08722, sequence (Q08722 19-323): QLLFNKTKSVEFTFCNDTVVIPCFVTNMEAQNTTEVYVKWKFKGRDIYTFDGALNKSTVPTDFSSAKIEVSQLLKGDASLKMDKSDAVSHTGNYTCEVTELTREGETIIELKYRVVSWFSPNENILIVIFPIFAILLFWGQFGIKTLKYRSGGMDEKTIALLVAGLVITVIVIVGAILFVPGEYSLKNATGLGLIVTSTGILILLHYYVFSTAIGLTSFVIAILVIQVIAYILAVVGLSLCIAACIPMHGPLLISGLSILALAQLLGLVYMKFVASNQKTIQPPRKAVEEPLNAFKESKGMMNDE

| Substance | phagocytosis of MDA-MB-231 cells by macrophages (flow cytometry) after PSFL-NK13 (4 µM, 48 h) |
| --- | --- |
| integrin αv subunit (endogenously expressed in MDA-MB-231 cells) (natural protein) | 3 fold |
| integrin β3 subunit (endogenously expressed in MDA-MB-231 cells) (from UniProt P05106 27-788) (natural protein) | 3 fold |
